Data set [1] has as its target S366 peptide (STING peptide substrate with serine 366).
Data set [2] concerns the target A366 peptide (STING peptide substrate with alanine at 366).

B1: TBK1 (protein kinase of the kinase panel) (protein)
chain: MQSTSNHLWLLSDILGQGATANVFRGRHKKTGDLFAIKVFNNISFLRPVDVQMREFEVLKKLNHKNIVKLFAIEEETTTRHKVLIMEFCPCGSLYTVLEEPSNAYGLPESEFLIVLRDVVGGMNHLRENGIVHRDIKPGNIMRVIGEDGQSVYKLTDFGAARELEDDEQFVSLYGTEEYLHPDMYERAVLRKDHQKKYGATVDLWSIGVTFYHAATGSLPFRPFEGPRRNKEVMYKIITGKPSGAISGVQKAENGPIDWSGDMPVSCSLSRGLQVLLTPVLANILEADQEKCWGFDQFFAETSDILHRMVIHVFSLQQMTAHKIYIHSYNTATIFHELVYKQTKIISSNQELIYEGRRLVLEPGRLAQHFPKTTEENPIFVVSREPLNTIGLIYEKISLPKVHPRYDLDGDASMAKAITGVVCYACRIASTLLLYQELMRKGIRWLIELIKDDYNETVHKKTEVVITLDFCIRNIEKTVKVYEKLMKINLEAAELGEISDIHTKLLRLSSSQGTIETSLQDIDSRLSPGGSLADAWAHQEGTHPKDRNVEKLQVLLNCMTEIYYQFKKDKAERRLAYNEEQIHKFDKQKLYYHATKAMTHFTDECVKKYEAFLNKSEEWIRKMLHLRKQLLSLTNQCFDIEEEVSKYQEYTNELQETLPQKMFTASSGIKHTMTPIYPSSNTLVEMTLGMKKLKEEMEGVVKELAENNHILERFGSLTMDGGLRNVDCL
In data set [1], B1 had an Activity (cpm) of 16700 cpm and a Fold induction of 2.52 fold. Also, the Activity (cpm) in data set [2] turned out to be 6600 cpm.

B2: PKCι (protein)
chain: MPTQRDSSTMSHTVAGGGSGDHSHQVRVKAYYRGDIMITHFEPSISFEGLCNEVRDMCSFDNEQLFTMKWIDEEGDPCTVSSQLELEEAFRLYELNKDSELLIHVFPCVPERPGMPCPGEDKSIYRRGARRWRKLYCANGHTFQAKRFNRRAHCAICTDRIWGLGRQGYKCINCKLLVHKKCHKLVTIECGRHSLPQEPVMPMDQSSMHSDHAQTVIPYNPSSHESLDQVGEEKEAMNTRESGKASSSLGLQDFDLLRVIGRGSYAKVLLVRLKKTDRIYAMKVVKKELVNDDEDIDWVQTEKHVFEQASNHPFLVGLHSCFQTESRLFFVIEYVNGGDLMFHMQRQRKLPEEHARFYSAEISLALNYLHERGIIYRDLKLDNVLLDSEGHIKLTDYGMCKEGLRPGDTTSTFCGTPNYIAPEILRGEDYGFSVDWWALGVLMFEMMAGRSPFDIVGSSDNPDQNTEDYLFQVILEKQIRIPRSLSVKAASVLKSFLNKDPKERLGCHPQTGFADIQGHPFFRNVDWDMMEQKQVVPPFKPNISGEFGLDNFDSQFTNEPVQLTPDDDDIVRKIDQSEFEGFEYINPLLMSAEECV
In data set [1], B2 came in with an Activity (cpm) of 12800 cpm and a Fold induction of 1.88 fold. The Activity (cpm) in data set [2] was found to be 6810 cpm.

B3: ULK1 (protein)
chain: MEPGRGGTETVGKFEFSRKDLIGHGAFAVVFKGRHREKHDLEVAVKCINKKNLAKSQTLLGKEIKILKELKHENIVALYDFQEMANSVYLVMEYCNGGDLADYLHAMRTLSEDTIRLFLQQIAGAMRLLHSKGIIHRDLKPQNILLSNPAGRRANPNSIRVKIADFGFARYLQSNMMAATLCGSPMYMAPEVIMSQHYDGKADLWSIGTIVYQCLTGKAPFQASSPQDLRLFYEKNKTLVPTIPRETSAPLRQLLLALLQRNHKDRMDFDEFFHHPFLDASPSVRKSPPVPVPSYPSSGSGSSSSSSSTSHLASPPSLGEMQQLQKTLASPADTAGFLHSSRDSGGSKDSSCDTDDFVMVPAQFPGDLVAEAPSAKPPPDSLMCSGSSLVASAGLESHGRTPSPSPPCSSSPSPSGRAGPFSSSRCGASVPIPVPTQVQNYQRIERNLQSPTQFQTPRSSAIRRSGSTSPLGFARASPSPPAHAEHGGVLARKMSLGGGRPYTPSPQVGTIPERPGWSGTPSPQGAEMRGGRSPRPGSSAPEHSPRTSGLGCRLHSAPNLSDLHVVRPKLPKPPTDPLGAVFSPPQASPPQPSHGLQSCRNLRGSPKLPDFLQRNPLPPILGSPTKAVPSFDFPKTPSSQNLLALLARQ
Consider B3, for which the Activity (cpm) came out at 209000 cpm in data set [1] and 12200 cpm in data set [2]. The protein also showed a Fold induction in data set [1] of 17.1 fold.

B4: NEK9 (protein)
chain: MSVLGEYERHCDSINSDFGSESGGCGDSSPGPSASQGPRAGGGAAEQEELHYIPIRVLGRGAFGEATLYRRTEDDSLVVWKEVDLTRLSEKERRDALNEIVILALLQHDNIIAYYNHFMDNTTLLIELEYCNGGNLYDKILRQKDKLFEEEMVVWYLFQIVSAVSCIHKAGILHRDIKTLNIFLTKANLIKLGDYGLAKKLNSEYSMAETLVGTPYYMSPELCQGVKYNFKSDIWAVGCVIFELLTLKRTFDATNPLNLCVKIVQGIRAMEVDSSQYSLELIQMVHSCLDQDPEQRPTADELLDRPLLRKRRREMEEKVTLLNAPTKRPRSSTVTEAPIAVVTSRTSEVYVWGGGKSTPQKLDVIKSGCSARQVCAGNTHFAVVTVEKELYTWVNMQGGTKLHGQLGHGDKASYRQPKHVEKLQGKAIRQVSCGDDFTVCVTDEGQLYAFGSDYYGCMGVDKVAGPEVLEPMQLNFFLSNPVEQVSCGDNHVVVLTRNKEVYSWGCGEYGRLGLDSEEDYYTPQKVDVPKALIIVAVQCGCDGTFLLTQSGKVLACGLNEFNKLGLNQCMSGIINHEAYHEVPYTTSFTLAKQLSFYKIRTIAPGKTHTAAIDERGRLLTFGCNKCGQLGVGNYKKRLGINLLGGPLGGKQVIRVSCGDEFTIAATDDNHIFAWGNGGNGRLAMTPTERPHGSDICTSWPRPIFGSLHHVPDLSCRGWHTILIVEKVLNSKTIRSNSSGLSIGTVFQSSSPGGGGGGGGGEEEDSQQESETPDPSGGFRGTMEADRGMEGLISPTEAMGNSNGASSSCPGWLRKELENAEFIPMPDSPSPLSAAFSESEKDTLPYEELQGLKVASEAPLEHKPQVEASSPRLNPAVTCAGKGTPLTPPACACSSLQVEVERLQGLVLKCLAEQQKLQQENLQIFTQLQKLNKKLEGGQQVGMHSKGTQTAKEEMEMDPKPDLDSDSWCLLGTDSCRPSL
In data set [1], B4 displayed an Activity (cpm) of 26300 cpm and a Fold induction of 3.77 fold. In data set [2], this protein had an Activity (cpm) of 6980 cpm.

B5: NEK2 (protein)
chain: MPSRAEDYEVLYTIGTGSYGRCQKIRRKSDGKILVWKELDYGSMTEAEKQMLVSEVNLLRELKHPNIVRYYDRIIDRTNTTLYIVMEYCEGGDLASVITKGTKERQYLDEEFVLRVMTQLTLALKECHRRSDGGHTVLHRDLKPANVFLDGKQNVKLGDFGLARILNHDTSFAKTFVGTPYYMSPEQMNRMSYNEKSDIWSLGCLLYELCALMPPFTAFSQKELAGKIREGKFRRIPYRYSDELNEIITRMLNLKDYHRPSVEEILENPLIADLVADEQRRNLERRGRQLGEPEKSQDSSPVLSELKLKEIQLQERERALKAREERLEQKEQELCVRERLAEDKLARAENLLKNYSLLKERKFLSLASNPELLNLPSSVIKKKVHFSGESKENIMRSENSESQLTSKSKCKDLKKRLHAAQLRAQALSDIEKNYQLKSRQILGMR
In data set [1], B5 displayed an Activity (cpm) of 162000 cpm and a Fold induction of 18.6 fold. The same protein yielded an Activity (cpm) in data set [2] of 8700 cpm.

B6: RIPK5 (protein)
chain: FAASLRQLEAGHSGRLEKTEDLWLRVRKDHAPRLARLSLESCSLQDVLLHRKPKLGQELGRGQYGVVYLCDNWGGHFPCALKSVVPPDEKHWNDLALEFHYMRSLPKHERLVDLHGSVIDYNYGGGSSIAVLLIMERLHRDLYTGLKAGLTLETRLQIALDVVEGIRFLHSQGLVHRDIKLKNVLLDKQNRAKITDLGFCKPEAMMSGSIVGTPIHMAPELFTGKYDNSVDVYAFGILFWYICSGSVKLPEAFERCASKDHLWNNVRRGARPERLPVFDEECWQLMEACWDGDPLKRPLLGIVQPMLQGIMNRLCKSNSEQPNRGLDDST
B6: in data set [1], the Activity (cpm) was found to be 16000 cpm and the Fold induction came to 12 fold. The protein also returned an Activity (cpm) in data set [2] of 1330 cpm.

B7: MEKK1 (protein)
chain: NQKCKEKMEAEEEEALAIAMAMSASQDALPIVPQLQVENGEDIIIIQQDTPETLPGHTKAKQPYREDTEWLKGQQIGLGAFSSCYQAQDVGTGTLMAVKQVTYVRNTSSEQEEVVEALREEIRMMSHLNHPNIIRMLGATCEKSNYNLFIEWMAGGSVAHLLSKYGAFKESVVINYTEQLLRGLSYLHENQIIHRDVKGANLLIDSTGQRLRIADFGAAARLASKGTGAGEFQGQLLGTIAFMAPEVLRGQQYGRSCDVWSVGCAIIEMACAKPPWNAEKHSNHLALIFKIASATTAPSIPSHLSPGLRDVALRCLELQPQDRPPSRELLKHPVFRTTW
B7: the results for the Activity (cpm) in data set [1] and in data set [2] were 24900 cpm and 11300 cpm, respectively. This protein also displayed a Fold induction in data set [1] of 2.2 fold.

B8: IKKα (protein)
chain: MERPPGLRPGAGGPWEMRERLGTGGFGNVCLYQHRELDLKIAIKSCRLELSTKNRERWCHEIQIMKKLNHANVVKACDVPEELNILIHDVPLLAMEYCSGGDLRKLLNKPENCCGLKESQILSLLSDIGSGIRYLHENKIIHRDLKPENIVLQDVGGKIIHKIIDLGYAKDVDQGSLCTSFVGTLQYLAPELFENKPYTATVDYWSFGTMVFECIAGYRPFLHHLQPFTWHEKIKKKDPKCIFACEEMSGEVRFSSHLPQPNSLCSLVVEPMENWLQLMLNWDPQQRGGPVDLTLKQPRCFVLMDHILNLKIVHILNMTSAKIISFLLPPDESLHSLQSRIERETGINTGSQELLSETGISLDPRKPASQCVLDGVRGCDSYMVYLFDKSKTVYEGPFASRSLSDCVNYIVQDSKIQLPIIQLRKVWAEAVHYVSGLKEDYSRLFQGQRAAMLSLLRYNANLTKMKNTLISASQQLKAKLEFFHKSIQLDLERYSEQMTYGISSEKMLKAWKEMEEKAIHYAEVGVIGYLEDQIMSLHAEIMELQKSPYGRRQGDLMESLEQRAIDLYKQLKHRPSDHSYSDSTEMVKIIVHTVQSQDRVLKELFGHLSKLLGCKQKIIDLLPKVEVALSNIKEADNTVMFMQGKRQKEIWHLLKIACTQSSARSLVGSSLEGAVTPQTSAWLPPTSAEHDHSLSCVVTPQDGETSAQMIEENLNCLGHLSTIIHEANEEQGNSMMNLDWSWLTE
For the protein B8, the values for the Activity (cpm) in data set [1] and in data set [2] were 6890 cpm and 2430 cpm, respectively. The protein also showed a Fold induction in data set [1] of 2.83 fold.

B9: IRAK4 (protein)
chain: MNKPITPSTYVRCLNVGLIRKLSDFIDPQEGWKKLAVAIKKPSGDDRYNQFHIRRFEALLQTGKSPTSELLFDWGTTNCTVGDLVDLLIQNEFFAPASLLLPDAVPKTANTLPSKEAITVQQKQMPFCDKDRTLMTPVQNLEQSYMPPDSSSPENKSLEVSDTRFHSFSFYELKNVTNNFDERPISVGGNKMGEGGFGVVYKGYVNNTTVAVKKLAAMVDITTEELKQQFDQEIKVMAKCQHENLVELLGFSSDGDDLCLVYVYMPNGSLLDRLSCLDGTPPLSWHMRCKIAQGAANGINFLHENHHIHRDIKSANILLDEAFTAKISDFGLARASEKFAQTVMTSRIVGTTAYMAPEALRGEITPKSDIYSFGVVLLEIITGLPAVDEHREPQLLLDIKEEIEDEEKTIEDYIDKKMNDADSTSVEAMYSVASQCLHEKKNKRPDIKKVQQLLQEMTAS
In data set [1], B9 returned an Activity (cpm) of 50400 cpm and a Fold induction of 6.77 fold. In addition, in data set [2], the Activity (cpm) stood at 7440 cpm.

The record behind these values is patent publication US20130039933.
